Measured values: patent publication US20090304580A1
pEC50: −log10 of the molar value.

What was measured:
[1] = biological target: PAM4 antigen (human pancreatic cancer mucin, CaPan1) (human); assay: size-exclusion elution of the 111In-IMP-288/TF10 complex with excess mucin
[2] = biological target: PAM4 antigen (human pancreatic cancer mucin, CaPan1) (human); assay: ELISA on target mucin antigen (FIG. 9)
[3] = biological target: PAM4 antigen (human pancreatic cancer mucin, CaPan1) (human); assay: radiolabelled TF10 mixed with mucin, size-exclusion analysis
[4] = biological target: IMP-288 di-HSG hapten-peptide, DOTA-D-Tyr-D-Lys(HSG)-D-Glu-D-Lys(HSG)-NH2; assay: size-exclusion elution of 111In-IMP-288 with TF10

Substance	percent of TF10-bound peptide eluting at higher molecular weight with excess mucin [1]	pEC50 [2]	immunoreactive fraction bound [3]	percent bound [4]
TF10 bispecific ([hPAM4]2 x h679) trimeric DNL construct (bispecific antibody)	92%	8.85	87%	90%
PAM4-F(ab')2 (antibody)	–	8.74	–	–
